T1: human GLP-2 receptor (human, UniProt O95838 1-553)
T1 sequence (looked up): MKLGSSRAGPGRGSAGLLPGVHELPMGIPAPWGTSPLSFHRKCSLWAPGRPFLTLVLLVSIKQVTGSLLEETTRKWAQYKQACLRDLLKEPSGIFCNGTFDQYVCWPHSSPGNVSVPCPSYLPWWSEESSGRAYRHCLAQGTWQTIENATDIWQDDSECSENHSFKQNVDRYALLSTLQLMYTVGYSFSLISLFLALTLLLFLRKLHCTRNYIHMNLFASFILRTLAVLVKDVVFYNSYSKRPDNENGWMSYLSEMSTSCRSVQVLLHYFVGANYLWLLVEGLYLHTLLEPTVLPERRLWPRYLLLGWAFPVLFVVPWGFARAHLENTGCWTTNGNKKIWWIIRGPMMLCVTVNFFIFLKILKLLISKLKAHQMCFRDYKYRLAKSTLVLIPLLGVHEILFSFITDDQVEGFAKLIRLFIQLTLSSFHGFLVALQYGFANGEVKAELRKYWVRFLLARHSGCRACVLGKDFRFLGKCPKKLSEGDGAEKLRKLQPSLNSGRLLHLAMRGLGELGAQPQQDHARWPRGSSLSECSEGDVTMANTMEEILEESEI


What was measured:
Assay in all cases: cell-based or functional assay
GLP-1 receptor [1] = molecular target: GLP-1 receptor
human GLP-2 receptor [2] = molecular target: T1, human GLP-2 receptor
GLP-1 receptor [3] = molecular target: GLP-1 receptor; remark: listed apart in the source
human GLP-2 receptor [4] = molecular target: T1, human GLP-2 receptor; remark: listed apart in the source
GLP-1 receptor [5] = molecular target: GLP-1 receptor; remark: listed apart in the source

| EC50, GLP-1 activity (luciferase reporter assay) (GLP-1 receptor [1]) [nM] | EC50, GLP-2 activity (fluorescence spectroscopy) (human GLP-2 receptor [2]) [nM] | EC50 (pM), cAMP luciferase reporter in GLP1R_cAMP/luc cells (GLP-1 receptor [3]) [pM] | vs. GLP-1 relative activity (%) (GLP-1 receptor [3]) | EC50 (nM), cAMP-gated CNG channel membrane potential dye fluorescence (Ft/F0) in Human GLP2R ACTOne cells (human GLP-2 receptor [4]) [nM] | vs. GLP-2 relative activity (%) (human GLP-2 receptor [4]) | fold reduction of GLP-1 activity (cAMP luciferase reporter) (GLP-1 receptor [5]) [times] | Binder |
| --- | --- | --- | --- | --- | --- | --- | --- |
| 0.402 | 44 |  |  |  |  |  | MG12-2 (bispecific fusion protein of Example 2) (Fc fusion, glycan linker (SEQ ID NO: 43) with N-glycosylation sites) chain 1: HGDGSFSDEMNTILDNLAARDFINWLIQTKITDGGGGSGGGGSGGGGSAKNTTAPATTRNTTRGGEEKKKEKEKEEQEERTHTCPPCPSHTQPLGVFLFPPKPKDTLMISRTPEVTCVVVDVSQEDPEVQFNWYVDGVEVHNAKTKPREEQFNSTYRVVSVLTVLHQDWLNGKEYKCKVSNKGLPSSIEKTISKAKGQPREPQVYTLPPCQEEMTKNQVSLWCLVKGFYPSDIAVEWESNGQPENNYKTTPPVLDSDGSFFLYSRLTVDKSRWQEGNVFSCSVMHEALHNHYTQKSLSLSLGK chain 2: HGEGTFTSDVSSYLEGQAAKEFIAWLVKGRGGGGGSGGGGSGGGGSEKEKEEQEERTHTCPPCPSHTQPLGVFLFPPKPKDTLMISRTPEVTCVVVDVSQEDPEVQFNWYVDGVEVHNAKTKPREEQFNSTYRVVSVLTVLHQDWLNGKEYKCKVSNKGLPSSIEKTISKAKGQPREPQVCTLPPSQEEMTKNQVSLSCAVKGFYPSDIAVEWESNGQPENNYKTTPPVLDSDGSFFLVSRLTVDKSRWQEGNVFSCSVMHEALHNHYTQKSLSLSLGK |
|  |  | 66 | 39 | 1.22 | 48 |  | MG12-4 (bispecific fusion protein of Example 4) (Fc fusion, glycan linker (SEQ ID NO: 43) with N-glycosylation sites) chain 1: HGEGTFTSDVSSYLEGQAAKEFIAWLVKGGPSSGAPPPSGGGGGSGGGGSGGGGSAKNTTAPATTRNTTRGGEEKKKEKEKEEQEERTHTCPPCPSHTQPLGVFLFPPKPKDQLMISRTPEVTCVVVDVSQEDPEVQFNWYVDGVEVHNAKTKPREEQFNSTYRVVSVLTVLHQDWLNGKEYKCKVSNKGLPSSIEKTISKAKGQPREPQVYTLPPCQEEMTKNQVSLWCLVKGFYPSDIAVEWESNGQPENNYKTTPPVLDSDGSFFLYSRLTVDKSRWQEGNVFSCSVLHEALHNHYTQKSLSLSLGK chain 2: HGDGSFSDEMNTILDNLAARDFINWLIQTKITDGGGGSGGGGSGGGGSEKEKEEQEERTHTCPPCPSHTQPLGVFLFPPKPKDQLMISRTPEVTCVVVDVSQEDPEVQFNWYVDGVEVHNAKTKPREEQFNSTYRVVSVLTVLHQDWLNGKEYKCKVSNKGLPSSIEKTISKAKGQPREPQVCTLPPSQEEMTKNQVSLSCAVKGFYPSDIAVEWESNGQPENNYKTTPPVLDSDGSFFLVSRLTVDKSRWQEGNVFSCSVLHEALHNHYTQKSLSLSLGK |
|  |  | 75 | 35 | 0.99 | 59 |  | MG12-5 (bispecific fusion protein of Example 5) (Fc fusion) chain 1: HGEGTFTSDVSSYLEGQAAKEFIAWLVKGGPSSGAPPPSGGGGSGGGGSGGGGSEKEKEEQEERTHTCPPCPSHTQPLGVFLFPPKPKDQLMISRTPEVTCVVVDVSQEDPEVQFNWYVDGVEVHNAKTKPREEQFNSTYRVVSVLTVLHQDWLNGKEYKCKVSNKGLPSSIEKTISKAKGQPREPQVYTLPPCQEEMTKNQVSLWCLVKGFYPSDIAVEWESNGQPENNYKTTPPVLDSDGSFFLYSRLTVDKSRWQEGNVFSCSVLHEALHNHYTQKSLSLSLGK chain 2: HGDGSFSDEMNTILDNLAARDFINWLIQTKITDGGGGSGGGGSGGGGSEKEKEEQEERTHTCPPCPSHTQPLGVFLFPPKPKDQLMISRTPEVTCVVVDVSQEDPEVQFNWYVDGVEVHNAKTKPREEQFNSTYRVVSVLTVLHQDWLNGKEYKCKVSNKGLPSSIEKTISKAKGQPREPQVCTLPPSQEEMTKNQVSLSCAVKGFYPSDIAVEWESNGQPENNYKTTPPVLDSDGSFFLVSRLTVDKSRWQEGNVFSCSVLHEALHNHYTQKSLSLSLGK |
|  |  | 304 | 9 | 1.35 | 43 | ~11 | MG12-1 (bispecific fusion protein of Example 1) (Fc fusion, glycan linker (SEQ ID NO: 43) with N-glycosylation sites) chain 1: HGEGTFTSDVSSYLEGQAAKEFIAWLVKGRGGGGGSGGGGSGGGGSAKNTTAPATTRNTTRGGEEKKKEKEKEEQEERTHTCPPCPSHTQPLGVFLFPPKPKDTLMISRTPEVTCVVVDVSQEDPEVQFNWYVDGVEVHNAKTKPREEQFNSTYRVVSVLTVLHQDWLNGKEYKCKVSNKGLPSSIEKTISKAKGQPREPQVYTLPPCQEEMTKNQVSLWCLVKGFYPSDIAVEWESNGQPENNYKTTPPVLDSDGSFFLYSRLTVDKSRWQEGNVFSCSVMHEALHNHYTQKSLSLSLGK chain 2: HGDGSFSDEMNTILDNLAARDFINWLIQTKITDGGGGSGGGGSGGGGSEKEKEEQEERTHTCPPCPSHTQPLGVFLFPPKPKDTLMISRTPEVTCVVVDVSQEDPEVQFNWYVDGVEVHNAKTKPREEQFNSTYRVVSVLTVLHQDWLNGKEYKCKVSNKGLPSSIEKTISKAKGQPREPQVCTLPPSQEEMTKNQVSLSCAVKGFYPSDIAVEWESNGQPENNYKTTPPVLDSDGSFFLVSRLTVDKSRWQEGNVFSCSVMHEALHNHYTQKSLSLSLGK |

From patent US20240368239A1 (SL METAGEN, published 2024)
